B1: DGI-2-40F-3-D12 (peptide, not shown: large carriers)
peptide: QGSAHVVRPPGVYDVPWKVGMFFHPQNWPNSWGRAYFRSGAAAGAPVPYPDPLEPRP
B2: DGI-2-40F-3-B72 (peptide, not shown: large carriers)
peptide: PKDGAAFKGSDFIQGGQTVMERAPALWWRDGGGQWEAPSTAAAGAPVPYPDPLEPRP
B3: DGI-2-40F-3-B11 (peptide, not shown: large carriers)
peptide: LAPMFLQNQVRTWAASRRPLPAGPSNARCETGSLSPWVPCAAAGAPVPYPDPLEPRP
B4: DGI-2-40F-4-F6 (peptide, not shown: large carriers)
peptide: SYRNFAMQSSLQVRRGSVVEDGTCWWEGVRCYSGAAAGAPVPYPDPLEPRP
B5: DGI-2-40F-3-B116 (peptide, not shown: large carriers)
peptide: GVVRAQQGLRYELQGDRYRLRRTQWLTVTYCSPSWAFAGCAAAGAPVPYPDPLEPRP
B6: DGI-2-40F-3-C7 (peptide, not shown: large carriers)
peptide: HPWVTNMLVFQRPPPPGFWLSDTTPRQRNGLGQVERPSVDAAAGAPVPYPDPLEPRP
B7: DGI-2-40F-3-C52 (peptide, not shown: large carriers)
peptide: GLLFTSSPYQCFWVHCTLTMSPLSVLGDLSSTIGRMRASRAAAGAPVPYPDPLEPRP
B8: DGI-2-40F-3-B95 (peptide, not shown: large carriers)
peptide: DYKTCVSQHVHPLFGEYFYHKVTHMSILSPTFRVTSLYGKAAAGAPVPYPDPLEPRP
B9: DGI-2-40F-3-B10 (peptide, not shown: large carriers)
peptide: MQAASTLSTYMGAIRMGYPILHWDRGGVQRVDPGLYRGRVAAAGAPVPYPDPLEPRP
B10: DGI-2-40F-3-B6 (peptide, not shown: large carriers)
peptide: QSNVWVLVGVIMQGVWYQRQHYCVYVMLLSDQVSVLLAVAAAAGAPVPYPDPLEPRP
B11: DGI-2-40F-3-D9 (peptide, not shown: large carriers)
peptide: RRTSADTDQLSRWEGAQAFSSLRSALSERLDSLRPGLPPSAAAGAPVPYPDPLEPRP
B12: DGI-2-40F-3-B5 (peptide, not shown: large carriers)
peptide: RSRSSSGASGSMLRVQNHMVLGSWMVRQPMGSMTPFHGHGAAAGAPVPYPDPLEPRP
B13: DGI-2-40F-3-B122 (peptide, not shown: large carriers)
peptide: HSGNRQSGSRRTHLLNIFCSSDTFVFPGWSAYLSRVCPGDAAAGAPVPYPDPLEPRP
B14: DGI-2-40F-3-A7 (peptide, not shown: large carriers)
peptide: CAYRWGLFRGPGRVDYDLQVVGIMMWPGPIPDRSSRGSVAAAAGAPVPYPDPLEPRP
B15: DGI-2-40F-3-A12 (peptide, not shown: large carriers)
peptide: RRTQPAYRSGADDRTSGFYCYVTSALSAGAWMPFLPRRLAAAAGAPVPYPDPLEPRP
B16: DGI-2-40F-3-B4 (peptide, not shown: large carriers)
peptide: LWLPCGLLVRPAQFYFYFSPLRHFLSSSVGSLSFPLSLLVAAAGAPVPYPDPLEPRP
B17: DGI-2-40F-3-D7 (peptide, not shown: large carriers)
peptide: ALRSLGSGGFGWQAGRASPQGMTHFPYFGWSGMPTARVRPAAAGAPVPYPDPLEPRP
B18: DGI-2-40F-4-F12 (peptide, not shown: large carriers)
peptide: GLYRRAGDASVGFSRWGRFDCQVYFSVECLLGSSWGGYSAAAGAPVPYPDPLEPRP
B19: DGI-2-40F-3-C6 (peptide, not shown: large carriers)
peptide: QMFSKGNWLAHPEGGVALGLSRESQLFRSCREFGYCMGPMAAAGAPVPYPDPLEPRP
B20: DGI-2-40F-3-D6 (peptide, not shown: large carriers)
peptide: GLEPVPFQTDKRIAMGWTREWLVNGYGAAHRRDARMQSGHAAAGAPVPYPDPLEPRP
B21: DGL-2-40F-3-D10 (peptide, not shown: large carriers)
peptide: TLVTEGNKGSVKAHKDIGVWQLWWDWLSVTDSETVGRVSHAAAGAPVPYPDPLEPRP

Biological target: lactate dehydrogenase (LDH)
Assay: phage ELISA, 405 nm; LDH coated

| Binder | LDH (OD) |
| --- | --- |
| LSVFRPGQFPHVGARGVSRTAAAGAPVPYPDPLEPRP (peptide, not shown: large carriers) [DGI-2-20R-4-G32] | 1.1 OD |
| B1 | 1 OD |
| LHFGSVMGWRPPGSLWSRPFGQVHPRSWSGSAAAGAPVPYPDPLEPRP (peptide, not shown: large carriers) [DGI-2-40F-3-D11] | 1.3 OD |
| FSSVLGLLDRRGVPVVVGEDAAAGAPVPYPDPLEPRP (peptide, not shown: large carriers) [DGI-2-20F-3-C3] | 0.9 OD |
| B2 | 0.7 OD |
| B3 | 0.9 OD |
| LTPYSLARSWLSGRPSTGATAAAGAPVPYPDPLEPRP (peptide, not shown: large carriers) [DGI-2-20F-3-C12] | 1 OD |
| B4 | 1 OD |
| B5 | 0.8 OD |
| MAVLPAARDFGGVVQGGVSGAAAGAPVPYPDPLEPRP (peptide, not shown: large carriers) [DGI-2-20F-3-C2] | 1 OD |
| B6 | 0.8 OD |
| WAGSTDLWQLWSLWVKPELRAAAGAPVPYPDPLEPRP (peptide, not shown: large carriers) [DGI-2-20F-3-B7] | 0.9 OD |
| RNWLDKDCVWMGDCGARAGEAAAGAPVPYPDPLEPRP (peptide, not shown: large carriers) [DGI-2-20F-4-E3] | 0.9 OD |
| FSSTGILLRSGRATAVGHVTAAAGAPVPYPDPLEPRP (peptide, not shown: large carriers) [DGI-2-20F-3-A6] | 1.1 OD |
| YDQVWNSLLAAVLGGQELVNAAAGAPVPYPDPLEPRP (peptide, not shown: large carriers) [DGI-2-20F-3-D112] | 1 OD |
| SWRLWVSGELQGDRRKGLRGAAAGAPVPYPDPLEPRP (peptide, not shown: large carriers) [DGI-2-20R-3-B7] | 1 OD |
| B7 | 0.8 OD |
| MGSLGPFGNINSLASGIGSVRNRPLLPLHGSPAAAGAPVPYPDPLEPRP (peptide, not shown: large carriers) [DGI-2-40F-3-D72] | 1.1 OD |
| LQIVRPAGWKMPGQVGYYIGAAAGAPVPYPDPLEPRP (peptide, not shown: large carriers) [DGI-2-20R-3-A9] | 1 OD |

| Binder | LDH (OD) |
| --- | --- |
| TPDRCLIYSSIQCLLEYSARRGSADAAAGAPVPYPDPLEPRP (peptide, not shown: large carriers) [DGI-2-20C-3-C65] | 1 OD |
| B8 | 0.8 OD |
| GSVLERGCLEFSGFCFSLGHAAAGAPVPYPDPLEPRP (peptide, not shown: large carriers) [DGI-2-20F-3-C1] | 1 OD |
| B9 | 1 OD |
| B10 | 0.8 OD |
| LVIQCSASVVACDLYWNYVGCLAAGAAAGAPVPYPDPLEPRP (peptide, not shown: large carriers) [DGI-2-20C-3-D12] | 1 OD |
| RWSLPAYLCRFVSQASCNSRAAAGAPVPYPDPLEPRP (peptide, not shown: large carriers) [DGI-2-20R-3-C12] | 1 OD |
| B11 | 0.8 OD |
| TSCQVMFLAGQHLLSRVPRLAAAGAPVPYPDPLEPRP (peptide, not shown: large carriers) [DGL-2-20R-3-B6] | 1 OD |
| SLSLYWDAQVGCEVFWGYCVAAAGAPVPYPDPLEPRP (peptide, not shown: large carriers) [DGI-2-20R-3-C10] | 1 OD |
| GMWIRPNGHMFLQGGYTARSAAAGAPVPYPDPLEPRP (peptide, not shown: large carriers) [DGI-2-20R-4-G8] | 1.1 OD |
| B12 | 0.9 OD |
| TANGHRYGGCGLWCKWMSGMAAAGAPVPYPDPLEPRP (peptide, not shown: large carriers) [DGI-2-20R-4-E2] | 1.1 OD |
| B13 | 0.8 OD |
| RCFQDGRMLALSPTYLIRRSVSPLVVGPLPTPAAAGAPVPYPDPLEPRP (peptide, not shown: large carriers) [DGI-2-40F-3-A24] | 0.9 OD |
| PAMGHCMQVLGPVLEGRSRDQVGRAAAGAPVPYPDPLEPRP (peptide, not shown: large carriers) [DGI-2-20R-4-G6] | 1.1 OD |
| B14 | 0.8 OD |
| B15 | 0.8 OD |
| LSLLSVVVRSMGASAPQRQVAAAGAPVPYPDPLEPRP (peptide, not shown: large carriers) [DGI-2-20F-3-A7] | 0.9 OD |

| Binder | LDH (OD) |
| --- | --- |
| ACSVGTALVFPQRWWYLGRSAAAGAPVPYPDPLEPRP (peptide, not shown: large carriers) [DGL-2-20R-3-D6] | 1.1 OD |
| RFWSVSYQGGRVMCREWGYCLPIAAAGAPVPYPDPLEPRP (peptide, not shown: large carriers) [DGI-2-40F-3-C92] | 0.8 OD |
| B16 | 0.8 OD |
| LTWGPQFGSLQVYSRHRGLPAAAGAPVPYPDPLEPRP (peptide, not shown: large carriers) [DGI-2-20R-4-E4] | 1.2 OD |
| LHRLGQSMGGTLDHLQGWGVAAAGAPVPYPDPLEPRP (peptide, not shown: large carriers) [DGI-2-20R-4-E5] | 1.1 OD |
| LSHPMSPLRAASQMALTQGVAAAGAPVPYPDPLEPRP (peptide, not shown: large carriers) [DGI-2-20R-4-H7] | 1.2 OD |
| MSTLQGPGHLFQMLRRASLGAAAGAPVPYPDPLEPRP (peptide, not shown: large carriers) [DGI-2-20R-4-H12] | 1.3 OD |
| B17 | 1 OD |
| GNKCFPPHDLFWDPCDQLQSAAAGAPVPYPDPLEPRP (peptide, not shown: large carriers) [DGI-2-20R-4-F6] | 1 OD |
| B18 | 0.9 OD |
| RWSICRGLQYSIPGCAVEDLSDVMAAAAGAPVPYPDPLEPRP (peptide, not shown: large carriers) [DGI-2-20C-4-H316] | 1 OD |
| GLRACDTYLGFCVGARRIDDAAAGAPVPYPDPLEPRP (peptide, not shown: large carriers) [DGI-2-20F-3-B102] | 1 OD |
| B19 | 0.8 OD |
| DAGIGWVGSMWFPPGCIGACAAAGAPVPYPDPLEPRP (peptide, not shown: large carriers) [DGI-2-20R-4-E82] | 1.1 OD |
| B20 | 1 OD |
| LSRIWRGVIESAREVESRGIAAAGAPVPYPDPLEPRP (peptide, not shown: large carriers) [DGI-2-20F-3-B1] | 0.9 OD |
| VAFGEQIRVAMAGTLWQRWRAAAGAPVPYPDPLEPRP (peptide, not shown: large carriers) [DGI-2-20R-3-D5] | 1.1 OD |
| B21 | 0.9 OD |

Reference: patent US7056679
